What was measured:
bleeding time in rats = conditions: rat, in vivo
bovine thrombin = biological target: T1, bovine thrombin (Bos taurus, UniProt P00735); assay: Specific antithrombin activity, inhibition of proteolytic activity of thrombin on chromozyme; type: biochemical; conditions: stock solution 1 mg/ml in physiological saline
T1 construct: The specific antithrombin activity (human and bovine thrombin) of the two recombinant hirudins
Procedure: (§1) a) The specific antithrombin activity (human and bovine thrombin) of the two recombinant hirudins in physiological saline is determined on the basis of the inhibition of the proteolytic activity of thrombin on chromozyme.
(§2) a) For a preparation of stock solution at a concentration of 1 mg/ml, the specific antithrombin activity of the two variants of hirudin with respect to human and bovine thrombins is expressed in Table 1 below: […]

[1] = test system: residual thrombin in the rat and rabbit plasma; assay: Anti-IIa effect in plasma, residual thrombin by chromogenic substrate; type: biochemical; conditions: above 60 ATU/ml, compared with rHV2
Procedure: (§3) b) The anticoagulant activity of the two hirudins is compared in vitro in rat and rabbit plasma in terms of prolongation of the thrombin time, and the anti-IIa effect is measured chromogenically.

thrombin [2] = biological target: T2, thrombin (Homo sapiens, UniProt P00734); assay: Kinetics of inhibition of human thrombin by purified hirudin variants (chromozyme PL); type: biochemical; parameters: The specific antithrombin activity (human and bovine thrombin) of the two recombinant hirudins
Text: To study the kinetics of inhibition of thrombin by these variants, the theory of high affinity inhibitors, as described in J. W. WILLIAMS and J. F. MORRISON Methods in Enzymology 63 pp. 437-467, 1979, is used, since hirudin is a reversible inhibitor of thrombin.
The variants of hirudin used are purified to 95% and the Sigma pure human thrombin has a percentage activity, measured by titration of the active site, which is above 92%. The concentration of human thrombin is the same for all the measurements, namely 5.5×10^-9 M. The medium is an 0.05M sodium PIPES buffer, pH 7.9, 0.18M KCl and 0.1% PEG at 37° C. The thrombin substrate is Boehringer chromozyme PL. A preincubation time of 2 minutes is observed for the thrombin and hirudin, and the reaction is then initiated with the substrate.
The following table summarizes the values determined experimentally for the quantity of hirudin required for a 95% inhibition of the same quantity of human thrombin (5.5×10^-9 M).

thrombin [3] = biological target: T2, thrombin; assay: Inhibitory effect of crude yeast culture supernatants on thrombin activity (chromozyme TH); type: biochemical; conditions: yeast culture supernatants after 48 h, compared with native HV2 (FIG. 2)
Procedure: 20 ml of culture (YNBG+0.5% casamino acids) at OD660 0.02 were seeded with each strain. After 48 h of agitation at 30° C. the cultures were centrifuged (5000 rpm, 5 min) and the supernatants assayed. A culture of TGY1sp4 pTG881 (plasmid not carrying the coding sequence for HV2) was used as a control.
The activity of the crude supernatants is measured in terms of their inhibitory effect with respect to thrombin activity (proteolytic activity on a synthetic substrate, chromozyme TH--Boehringer Mannheim).

[4] = test system: venous thrombosis in rabbits; assay: Wessler's model in rabbits (thromboplastin as thrombogenic agent); type: in vivo, rabbit
Procedure: (§4) e) The antithrombotic activity of the two variants of hirudin and of standard heparin is studied in Wessler's rabbit and rat model, with thromboplastin as thrombogenic agent, and in the model of stasis in rabbits (Fareed). The compounds are administered by continuous perfusion in rabbits and by i.v. bolus in rats.
Male New Zealand rabbits weighing 2.5 to 3 kg were used in this study. After anesthesia by intravenous injection of pentobarbital sodium (30 mg/kg), the left carotid was cannulated and the two jugular veins were isolated; two slack ligatures were placed on each of them at a distance of 2.5 cm from one another. The rabbits then received either physiological saline or solutions of hirudin or heparin in continuous perfusion for 30 minutes at a flow rate of 2.5 ml/hour. Two minutes before the end of the perfusion, arterial blood samples were drawn in order to determine the plasma levels of the anti-coagulants. One minute before the end of the perfusion, human thromboplastin (Manchester Comparative Reagents Ltd), standardized according to M. Buchanan's procedure, was injected at a dose of 600 ug/kg during exactly 30 seconds into the aorta via the carotid. Thirty seconds later the perfusion was stopped and blood stasis was produced by tightening the ligatures on the two venous segments for 15 minutes. […]

rat and rabbit plasma = assay: Anticoagulant activity in vitro in plasma, prolongation of the thrombin time; conditions: higher concentrations, compared with rHV2
Procedure: as §3

[5] = test system: thrombosis by blood stasis in rabbits; assay: Model of thrombosis by blood stasis in rabbits; type: in vivo; conditions: RABBIT i.v. perfusion
Procedure: as §4
Male New Zealand rabbits weighing 2.5 to 3 kg were used in this study. After intravenous anesthesia with pentobarbital sodium (30 mg/kg), the left carotid was cannulated and the two jugular veins were isolated; two slack ligatures were placed on each of them, at a distance of 2.5 cm from one another. The rabbits then received either physiological saline or solutions of hirudin or heparin in continuous perfusion for 30 minutes, at a flow rate of 2.5 ml/hour. Two minutes before the end of perfusion, arterial blood samples were drawn in order to determine the plasma levels of the anticoagulants. At the same time as the perfusion was stopped, stasis was established by tightening the four ligatures (first the proximal and then the distal). The stasis was maintained for 2 hours, the jugulars were then opened and the thrombi extracted, rinsed in physiological saline and weighed after blotting with filter paper.

hemorrhage in rabbits = conditions: rabbit, in vivo
thrombin [6] = biological target: T2, thrombin; assay: Specific antithrombin activity, inhibition of proteolytic activity of thrombin on chromozyme; type: biochemical; parameters: The specific antithrombin activity (human and bovine thrombin) of the two recombinant hirudins
Procedure: as §1, §2

[7] = test system: venous thrombosis in rats; assay: Wessler's model in rats; type: in vivo; conditions: RAT i.v. bolus, -5 min 40 s before stasis
Procedure: as §4
Male (CD-COBS) Sprague-Dawley rats weighing approximately 300 g were used. […] Two flexible ligatures were positioned 0.7 cm apart.
The test products, diluted in physiological saline, were injected in an i.v. bolus at 1 ml/kg, 5 min 40 s or 1 min (heparin) before the production of venous stasis. Forty seconds before this stasis, a thrombogenic agent (rabbit thromboplastin, E. Dade) was injected at a dose of 25 mg/ml/kg into the vein of the penis in the space of 30 seconds, measured very exactly. Ten seconds after the end of the injection, stasis was established by tightening the two ligatures, first the proximal and then the distal. The stasis was maintained for 10 minutes, and the thrombus was then removed, immersed in a 0.38% strength citrate solution, dried with general-purpose absorbent paper and weighed on the following day after drying for one hour at […].

B1: ILE THR TYR THRASP CYS THR GLU SER GLY GLN ASN LEU CYS LEU CYS GLU GLY SER ASN VAL CYS GLY LYS GLY ASN LYS CYS ILE LEU GLY SER ASN GLY LYS GLY ASN GLN CYS VAL THR GLY GLU GLY THR PRO LYS PRO GLU SER … (protein)
chain: ITYTDCTESGQNLCLCEGSNVCGKGNKCILGSNGKGNQCVTGEGTPKPESHNNGDFEEIPEEYLQ
modifications: printed: ILE THR TYR THRASP CYS THR GLU SER GLY GLN ASN LEU CYS LEU CYS GLU GLY SER ASN VAL CYS GLY LYS GLY ASN LYS CYS ILE LEU GLY SER ASN GLY LYS GLY ASN GLN CYS VAL THR GLY GLU GLY THR PRO LYS PRO GLU SER HIS ASN ASN GLY ASP PHE GLU GLU ILE PRO GLU GLU TYR LEU GLN
notes: recombinant hirudin HV2 variant in which the Asn^47 is replaced by a Lys, produced in yeast
prolongation of the bleeding time (bleeding time in rats): less than those in animals treated with standard heparin
specific antithrombin activity for bovine thrombin (bovine thrombin): 19,200 ATU/mg
further neutralizing the traces of residual thrombin [1]: more effective
Quantity for attaining 95% inhibition of thrombin (thrombin [2]; human thrombin 5.5×10^-9 M, PIPES pH 7.9, 37° C., chromozyme PL, 2 min preincubation): 7.6 10^-9 M
fold less hirudin than HV2 required for inhibiting the same quantity of human thrombin (thrombin [2]; relative to hirudin HV2): approximately 4 fold
inhibitory effect of crude supernatants with respect to thrombin activity (thrombin [3]): at least equal to that of native HV2
Antithrombotic effects, WESSLER ([4]; RABBIT i.v. perfusion): 20 µg/kg/h
antithrombotic activity ([4]; continuous perfusion in rabbits, compared with rHV2 and heparin): superior to those of rHV2 and heparin
anticoagulant activity determined in terms of the thrombin time (rat and rabbit plasma): markedly superior
Antithrombotic effects, STASIS [5]: 47 µg/kg/h
risk of hemorrhage (hemorrhage in rabbits): less than those in animals treated with standard heparin
specific antithrombin activity, results expected for human thrombin (thrombin [6]; expected values): 16,000 ATU/mg
specific antithrombin activity for human thrombin (thrombin [6]; stock solution 1 mg/ml in physiological saline): 19,000 ATU/mg
specific antithrombin activity (thrombin [6]; summary value of the text, identical for the human and bovine thrombins): ~19,000 ATU/mg
Antithrombotic effects, WESSLER [7]: 160 µg/kg
